Data set [1] deals with Cre^Yang (R72E/L115D/R199D) (UniProt P06956). In words: native MS.
The data set “cryo-EM structure” deals with the molecule itself. The data set can be described thus: cryo-EM structure.

In data set [1], “Cre^Yin (D33A/A36V/R192A) (from UniProt P06956 1-343) (enzyme)” showed a percent of the 2:1 protein:loxP complexes (ion counts) of 36%.

B1: Cre^K201A (enzyme)
chain: MSNLLTVHQNLPALPVDATSDEVRKNLMDMFRDRQAFSEHTWKMLLSVCRSWAAWCKLNNRKWFPAEPEDVRDYLLYLQARGLAVKTIQQHLGQLNMLHRRSGLPRPSDSNAVSLVMRRIRKENVDAGERAKQALAFERTDFDQVRSLMENSDRCQDIRNLAFLGIAYNTLLRIAEIARIRVKDISRTDGGRMLIHIGRTATLVSTAGVEKALSLGVTKLVERWISVSGVADDPNNYLFCRVRKNGVAAPSATSQLSTRALEGIFEATHRLIYGAKDDSGQRYLAWSGHSARVGAARDMARAGVSIPEIMQAGGWTNVNIVMNYIRNLDSETGAMVRLLEDGD
As a reminder, the stoichiometry N is a count of units in the complex or per binding partner. For B1, the “stoichiometry N” value in the data set “cryo-EM structure” was 4.

For the origin of these results see doi:10.1101/2021.07.31.454597 (bioRxiv, 2021).
